Changes are numbered by the printed parent chain. Names may count otherwise. Read-outs that look alike come from different tables or passages of the source.
Assays:
[1] = target: T1, huNav1.7α + β1-β2-β3 (human Nav1.7α co-expressed with Navβ1, Navβ2 and Navβ3) (human); experiment: binding FACS; minus = lower activity than reference
T1 construct: also called huNav1.7-beta1-beta2-beta3

[2] = target: T2, muNav1.7α (murine Nav1.7α) (murine, UniProt Q62205 1-1984); experiment: as above
T2 construct: HEK Jmp-In cells

[3] = target: T3, rhNav1.7α + β1-β2-β3 (rhesus Nav1.7α co-expressed with Navβ1, Navβ2 and Navβ3) (rhesus monkey); experiment: binding FACS; plus = higher activity than reference
T3 construct: also called rhNav1.7-beta1-beta2-beta3

[4] = target: T2, muNav1.7α (murine Nav1.7α); experiment: as above
[5] = target: rhNav1.7α + β1-β2-β3 (rhesus monkey); experiment: cell-based or functional assay
[6] = target: huNav1.7α + β1 (human); experiment: cell-based or functional assay
[7] = target: T4, huNav1.7α + β1-β2-β3 (human, UniProt Q15858 1-1988; A5A6L6 19-218; O60939 30-215; Q2KI11 23-215); experiment: competition FACS vs EC25 of 275B05(N93R), CHO FlpIn
T4 construct: also called huNav1.7-beta1-beta2-beta3; huNav1.7-β1-β2-β3

[8] = target: T5, rhNav1.7α + β1-β2-β3 (rhesus monkey); experiment: as above
T5 construct: also called rhNav1.7-beta1-beta2-beta3; rhNav1.7-β1-β2-β3

[9] = target: T6, huNav1.7α + β1 (human Nav1.7α co-expressed with Navβ1) (human, UniProt Q15858 1-1988; Q07699 19-218); experiment: cell-based or functional assay
[10] = target: T7, huNav1.7α (human Nav1.7 alpha subunit, expressed without β subunits) (human, UniProt Q15858 1-1988); experiment: binding FACS, HEKa cells
T7 construct: also called HEK293 human Nav1.7α; HEKa Nav1.7α

[11] = target: T7, huNav1.7α (human Nav1.7 alpha subunit, …); experiment: binding FACS, HEKa cells; remark: listed apart in the source
[12] = target: T6, huNav1.7α + β1 (human Nav1.7α …); experiment: binding FACS, HEKa/β1 cells
[13] = target: T6, huNav1.7α + β1 (human Nav1.7α …); experiment: binding FACS, HEKa/β1 cells; remark: listed apart in the source
[14] = target: T8, huNav157 chimera 14 + β1-β2-β3 (human); experiment: binding FACS, HEK FlpIn cells
T8 construct: Chimera of huNav1.7α (extracellular loops and transmembrane helices) and huNav1.5α (intracellular loops); also called Nav157ch14-β1-β2-β3; huNav157 chimera 14-beta1-beta2-beta3

[15] = target: T9, huNav157 chimera 14 (human); experiment: binding FACS, HEK FlpIn cells
T9 construct: Chimera without β subunits; also called Nav157ch14

[16] = target: T8, huNav157 chimera 14 + β1-β2-β3; experiment: binding FACS, HEK FlpIn cells; remark: listed apart in the source
[17] = target: T9, huNav157 chimera 14; experiment: binding FACS, HEK FlpIn cells; remark: listed apart in the source
[18] = target: T7, huNav1.7α (human Nav1.7 alpha subunit, …); experiment: binding FACS, huNav1.7α without β; minus = lower than reference
[19] = target: T7, huNav1.7α (human Nav1.7 alpha subunit, …); experiment: binding FACS, huNav1.7α without β; minus = weaker than reference
[20] = target: T10, rhNav1.7α + β1-β2-β3 (rhesus Nav1.7α co-expressed with Navβ1, Navβ2 and Navβ3 on cells) (rhesus monkey (α subunit); β subunits …); experiment: cell-based or functional assay
[21] = target: huNav1.7α + β1 on HEK cells (human, UniProt Q15858 1-1988; Q07699 19-218); experiment: cell-based or functional assay
[22] = target: T11, huNav1.7α + β1-β2-β3 (human Nav1.7α co-expressed with human Navβ1, Navβ2 and Navβ3 on cells) (human); experiment: binding FACS, CHO FlpIn cells
T11 construct: also called huNav1.7-beta1-beta2-beta3; CHO FlpIn huNav1.7α + β1-β2-β3
How it was run: (§1)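 Cells at 1×10^5 per well incubated 30 min at 4 °C with purified FLAG3-tagged ISVD in FACS buffer (PBS, 10% FBS, NaN₃); bound ISVD detected via murine anti-Flag by flow cytometry, dead cells excluded with 1 μg/mL propidium iodide.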

[23] = target: T10, rhNav1.7α + β1-β2-β3 (rhesus Nav1.7α …); experiment: binding FACS, CHO FlpIn cells
How it was run: as §1

[24] = target: T11, huNav1.7α + β1-β2-β3 (human Nav1.7α …); experiment: binding FACS, CHO FlpIn cells; remark: listed apart in the source
Method: (§2) Binding of the ISVDs to cell-expressed Nav1.7α was detected via murine anti-Flag (Sigma, catalog #F1804). Briefly, cells were resuspended in FACS buffer (PBS, 10% FBS, NaN₃) and transferred to a 96-well V-bottom plate at 1×10^5 cells/well. Purified FLAG3-tagged ISVD was diluted in FACS buffer and added to the cells for 30 minutes at 4° C. […] Prior to the read-out, the samples were resuspended in 1 μg/mL propidium iodide (Sigma, catalog #P4170) to exclude dead cells. Between each step, the cells were centrifuged for 5 minutes at 200 grams and washed with 100 μL/well FACS buffer.

[25] = target: T10, rhNav1.7α + β1-β2-β3 (rhesus Nav1.7α …); experiment: binding FACS, CHO FlpIn cells; remark: listed apart in the source
Method: as §2

[26] = target: T5, rhNav1.7α + β1-β2-β3; experiment: cell-based or functional assay; remark: listed apart in the source
[27] = target: huNav1.7α + β1 (human); experiment: cell-based or functional assay; remark: listed apart in the source
[28] = target: T5, rhNav1.7α + β1-β2-β3; experiment: cell-based or functional assay; remark: listed apart in the source
[29] = target: huNav1.7α + β1 (human); experiment: cell-based or functional assay; remark: listed apart in the source
[30] = target: T4, huNav1.7α + β1-β2-β3; experiment: binding FACS, CHO FlpIn
How it was run: as §1

[31] = target: T5, rhNav1.7α + β1-β2-β3; experiment: binding FACS, CHO FlpIn
How it was run: as §1

[32] = target: T12, muNav1.7α (murine, UniProt Q62205 1-1984); experiment: binding FACS, HEK JmpIn
T12 construct: HEK JmpIn cells; also called murine Nav1.7α
How it was run: as §1

[33] = target: T4, huNav1.7α + β1-β2-β3; experiment: binding FACS, CHO FlpIn; remark: listed apart in the source
Method: as §2

[34] = target: T5, rhNav1.7α + β1-β2-β3; experiment: binding FACS, CHO FlpIn; remark: listed apart in the source
Method: as §2

[35] = target: T12, muNav1.7α; experiment: binding FACS, HEK JmpIn; remark: listed apart in the source

B1: F010301877 (VHH)
VHH: EVQLVESGGGVVQPGGSLRLSCATTSRAFIRDVFTGWYRRVPGKERELVARIYNGGNTNYADFAKGRFTISRDNAKNMVYLQMNSLRPEDTALYYCLFSGTINTGREYRSGDYWGQGTLVTVSS
notes: also called F0103464B09(L11V, S68T, K76N, T79Y, R81Q, S82aN, N82bS, K83R, G88A, V89L); K76N
EC50 fold change compared to reference [1]: -2 fold
EC50 fold change compared to reference [2]: -4 fold

B2: F010301893 (VHH)
VHH: B1 VHH with E45Q, N77K
notes: also called F0103464B09(L11V, E44Q, S68T, T79Y, R81Q, S82aN, N82bS, K83R, G88A, V89L); E44Q
EC50 fold change compared to reference [3]: 3 fold
EC50 fold change compared to reference [4]: 3 fold

B3: F010301452 (VHH)
VHH: EVQLVESGGGLVQPGGSLRLSCAASGPVFNINSMAWYRRAPGKQRELVAYSTPGWDWNYADSVKGRFTISRDNAKRVYLQMNSLTPEDTAVYYCRWLLQPSIYDISRTYWGQGTLVTVSS
notes: Tagless version of F010300659 by its description; also called F0103275B05(S27P, I28V, S50Y, N53P, G55W, S56D, T57W, N93R, A94W)
QPatch electrophysiology IC50 [M], HEK cells [5]: 1.8e-08 M
QPatch electrophysiology IC50 [M], HEK cells [6]: 2.1e-08 M
IC50 [7]: 30 nM
IC50 [8]: 16 nM

B4: F010302391 (VHH)
VHH: EVQLVESGGGVVQPGGSLRLSCAASGRILRIGYMRWYRQAPGKQREFVARITGGSATGYADSVKGRFTISRDNAKNTVYLQMNSLRPEDTALYYCEALVTASVRGGSIHSGTYWGQGTLVTVSS
notes: also called F0103387G05(L11V, A14P, D23A, H37Y, G40A, A41P, D53G, D54G, D58G, N82bS, N83R, V89L, R105Q)-FLAG3-HIS6
IC50 [M], electrophysiology on HEK huNav1.7α + β1 cells [9]: 3.2e-08 M
Bmax [10]: 100%
EC50 [10]: 1.9 nM
EC50 [11]: 1.9 nM
EC50 [12]: 2 nM
EC50 [13]: 2 nM
EC50 [14]: 2.3 nM
Bmax [15]: 100%
EC50 [15]: 2.7 nM
EC50 [16]: 2.3 nM
EC50 [17]: 2.7 nM

B5: F010301648 (VHH)
VHH: B4 VHH with A23D, Y37H, A40G, P41A, G53D, G54D, G58D, E96N
notes: also called F0103387G05(L11V, A14P, N82bS, N83R, V89L, E93N, R105Q); E93N
Bmax [10]: 25%
EC50 [10]: 89 nM
EC50 [12]: 3.2 nM
EC50 [14]: 3.4 nM
Bmax [15]: 30%
EC50 [15]: 210 nM
Bmax fold change compared to reference [18]: -4 fold
EC50 fold change compared to reference [19]: -20 fold

B6: F010302383 (VHH)
VHH: EVQLVESGGGVVQPGGSLRLSCAASGPVFNINRMAWYRQAPGKQRELVAYVTPTGDISYADSVKGRFTISRGGSKRVYLQMNSLRPEDTALYYCRALLQPSSYSGTRTYWGQGTLVTVSS
notes: also called F0103387G04(L11V, A12V, K33R, R39Q, S50Y, S56D, T60A, D72G, W78V, S79Y, T83R, V89L, N93R, D99S, N100cG) + FLAG3-HIS6
IC50 [M], in vitro electrophysiology, HEK rhNav1.7α + β1-β2-β3 [20]: 3e-09 M
IC50 [M], in vitro electrophysiology, HEK huNav1.7α + β1 [21]: 2.2e-08 M
Bmax [22]: 100%
EC50 [22]: 6.8 nM
Bmax [23]: 100%
EC50 [23]: 4.5 nM
EC50 [24]: 6.8 nM
EC50 [25]: 4.5 nM

B7: F010302363 (VHH)
VHH: EVQLVESGGGVVQPGGSLRLSCAASHRAFIRDVFTGWYRQAPGKQRELVARIYEGGNTQYADSVKGRFTISRDNAKKTVYLQMNSLRPEDTALYYCLFSGTISTGREYRSGDYWGQGTLVTVSS
IC50 [M], electrophysiology, HEK cells [26]: 3.6e-08 M
IC50 [M], electrophysiology, HEK cells [27]: 1.1e-08 M
Qpatch IC50 [28]: 166 nM
Qpatch IC50 [29]: 7 nM
Bmax [30]: 100%
EC50 [30]: 4.2 nM
Bmax [31]: 96%
EC50 [31]: 9.3 nM
Bmax [32]: 18%
EC50 [32]: 48 nM
EC50 [33]: 4.2 nM
EC50 [34]: 9.3 nM
EC50 [35]: 48 nM

— US20240002497A1 (Merck Sharp & Dohme, published 2024)
